Data from US20180327494A1 (SUZHOU ALPHAMAB, published 2018).

Legend:
[1] = molecular target: T1, human PDL1 protein on the cell membrane (human, UniProt Q9NZQ7 19-290); assay: flow cytometry competition: 293-PDL1 cells, single domain antibody plus hPD-1-Fc-biotin 0.3 µg (blocked ligand), SA-PE; right panel
T1 construct: whole, on cells; also used here for Raji-PDL1 cells and for native PDL1 on lung cancer tissue sections; also called Raji-PDL1

[2] = molecular target: T2, Fc protein; assay: ELISA, Fc protein coated, 100 ng dAb per well
T2 construct: counter-screen antigen for the Fc moiety of PDL1-Fc

[3] = molecular target: T3, PDL1-Fc fusion protein (human); assay: ELISA, ratio of OD on PDL1-Fc to OD on Fc protein
T3 construct: expressed in CHO or HEK293 cells; also called Human PDL1-Fc; recombinant human PDL1-Fc

[4] = molecular target: T3, PDL1-Fc fusion protein; assay: ELISA, PDL1-Fc coated, 100 ng dAb per well, anti-His detection
[5] = molecular target: T3, PDL1-Fc fusion protein; assay: competitive ELISA, PDL1-Fc coated, 100 ng dAb and 10 ug PD1-Fc-Biotin (competitor); remaining PD1-Fc-Biotin signal
[6] = molecular target: T3, PDL1-Fc fusion protein; assay: ELISA, ratio of OD on PDL1-Fc to OD of blank control
[7] = molecular target: T4, Mouse PDL1-Fc protein (mouse); assay: ELISA, mouse PDL1-Fc coated, anti-His detection
T4 construct: expressed in HEK293 cells; also called mouse PDL1-Fc fusion protein; mice PDL1-Fc

[8] = molecular target: T3, PDL1-Fc fusion protein; assay: competitive ELISA: PDL1-Fc coated 0.5 µg/well, dilution series of the antibody with PD1-Fc-Biotin 100 µg/mL (blocked ligand), SA-HRP, OD405; the sheet labels it EC50, paragraph 198 calls it IC50; unit from the axis
[9] = molecular target: T3, PDL1-Fc fusion protein; assay: ELISA, dAb coated 0.5 ug/well, dilution series of PDL1-Fc, anti-human IgG-Fc-HRP
[10] = molecular target: T3, PDL1-Fc fusion protein; assay: SPR, BIAcore X100, PDL1-Fc on CM5 chip, antibody as analyte, 25 C
[11] = molecular target: T3, PDL1-Fc fusion protein; assay: competitive ELISA, PDL1-Fc coated, dilution series of antibody with 100 ug/mL PD1-Fc-Biotin (competitor)
[12] = molecular target: T3, PDL1-Fc fusion protein; assay: ELISA: plate coated with the single domain antibody 0.5 µg/well, dilution series of PDL1-Fc, anti-human IgG-Fc-HRP, OD405, four-parameter fit; unit from the axis 'Log Conc(ng/mL)', the concentration of PDL1-Fc

Row | binding result [1] | OD (against Fc) [2] | OD (PDL1/Fc) [3] | OD (against PDL1) [4] | OD [5] | OD (PDL1/blank) [6] | binding result [7] | IC50 [8] | EC50 [9] | Kd [10] | IC50 [11] | EC50 [12] | Binder
1 | binds | 0.099 OD (405 nm) | 8.63 ratio | 0.854 OD (405 nm) | 0.126 OD (405 nm) | 15.8 ratio | no binding (tested: 100 ng per well) |  |  |  |  |  | PDL1-10 dAb (VHH, camel heavy chain single domain antibody expressed in E. coli, purified on nickel; also called antibody No. 10; not shown: His tag from expression vector PET32b) VHH: QVQLQESGGGSVQAGGSLRLSCAASGNIVSSYCMGWFRQAPGKERVGVAAIDSDGTTKYADSMKGRFTISKDNAKNTLDLQMNSLKPEDTAMYYCVARLNCPGPVDWVPMFPYRGQGTQVTVSS
2 |  | 0.085 OD (405 nm) | 10.3 ratio | 0.875 OD (405 nm) |  | 16.2 ratio |  |  |  |  |  |  | PDL1-94 dAb (VHH, camel heavy chain single domain antibody expressed in E. coli, purified on nickel; also called antibody No. 94; not shown: His tag from expression vector PET32b) VHH: QVQLQESGGGSVQAGGSLRLSCAASLNIFSSYCMGWFRQAPGKQRVGVATIDSDGTTRYVDSVKGRFTISKDNAKNTLDLQMNSLKPEDTAMYYCAARLNCPGPVDWVPMFPYRGQGTQVTVSS
3 |  | 0.08 OD (405 nm) | 32.8 ratio | 2.62 OD (405 nm) | 0.161 OD (405 nm) | 48.5 ratio |  | 0.917 mg/L | ~0.005 mg/L | 0.771 nM | ~0.917 mg/L | 0.00568 mg/L | PDL1-27 dAb (VHH, camel heavy chain single domain antibody expressed in E. coli, purified on nickel; also called antibody No. 27; not shown: His tag from expression vector PET32b) VHH: QVQLQESGGGSVQAGGSLRLSCAASGNISSRRCMAWFRQAPGKERERVANILTTTGNTYLADSVKGRFTISQNNAKSTVYLQMNSLKPEDTAMYYCAADSFHDPTCTVVASSGAFQYWGQGTQVTVSS
4 |  | 0.085 OD (405 nm) | 31.5 ratio | 2.68 OD (405 nm) | 0.429 OD (405 nm) | 49.6 ratio |  |  |  | 0.548 nM |  |  | PDL1-81 dAb (VHH, camel heavy chain single domain antibody expressed in E. coli, purified on nickel; also called antibody No. 81; not shown: His tag from expression vector PET32b) VHH: QVQLQESGGGSVQAGGSLRLSCAASGNIIRVRCMAWFRQAPGKERERGPNILTTTISTYLADSVKGRFTISQNNAKSTVYLQMNSLKPEDTAMYYCAADSFGYPTCPGPASSGAFQYWGQGTQVTVSS
5 |  | 0.165 OD (405 nm) | 7.1 ratio | 1.17 OD (405 nm) |  | 21.7 ratio |  |  |  |  |  |  | PDL1-69 dAb (VHH, camel heavy chain single domain antibody expressed in E. coli, purified on nickel; also called antibody No. 69; not shown: His tag from expression vector PET32b) VHH: QVQLQESGGGSVQAGGSLRLSCAVQRNISSSYCMAWFRQAPGKQRERVDKILTTPGNTYLADSVKGRFTISQNNAKSTVYLQMNSLKPEDTAMYYCAADSFQKPTCTVVASWPAFQYWGQGTQVTVSS
6 |  | 0.124 OD (405 nm) | 18 ratio | 2.24 OD (405 nm) | 0.897 OD (405 nm) | 41.4 ratio |  |  |  |  |  |  | PDL1-87 dAb (VHH, camel heavy chain single domain antibody expressed in E. coli, purified on nickel; also called antibody No. 87; not shown: His tag from expression vector PET32b) VHH: QVQLQESGGGSVQAGGSLKLSCAASGYIFSSCGMGWYRQAPGKERELVSTISSDGTTSYADSVKGRFTISQDNAKNTLYLQMNSLKTEDTAVYYCVADCPPIPEFTSCSGGYCLSGDYWGQGTQVTVSS
7 |  | 0.065 OD (405 nm) | 30.5 ratio | 1.98 OD (405 nm) |  | 36.7 ratio |  |  |  |  |  |  | PDL1-38 dAb (VHH, camel heavy chain single domain antibody expressed in E. coli, purified on nickel; also called antibody No. 38; not shown: His tag from expression vector PET32b) VHH: QVQLQESGGGSVQAGGSLRLSCAVSGFISSRRCMGWFRQAPGKERVGVANITGTGNTYLADSVKGRFTISQNNAKSTVYLQMNSLKPEDTAMYYCAADSFPTCTVVASSGAFQYWGQGTQVTVSS
